IntAct's records for PubMed 24944246

B1: Krueppel-like factor 10 (Homo sapiens), Q13118 (parent)
chain: MLNFGASLQQTAEERMEMISERPKESMYSWNKTAEKSDFEAVEALMSMSCSWKSDFKKYVENRPVTPVSDLSEEENLLPGTPDFHTIPAFCLTPPYSPSDFEPSQVSNLMAPAPSTVHFKSLSDTAKPHIAAPFKEEEKSPVSAPKLPKAQATSVIRHTADAQLCNHQTCPMKAASILNYQNNSFRRRTHLNVEAARKNIPCAAVSPNRSKCERNTVADVDEKASAALYDFSVPSSETVICRSQPAPVSPQQKSVLVSPPAVSAGGVPPMPVICQMVPLPANNPVVTTVVPSTPPSQPPAVCPPVVFMGTQVPKGAVMFVVPQPVVQSSKPPVVSPNGTRLSPIAPAPGFSPSAAKVTPQIDSSRIRSHICSHPGCGKTYFKSSHLKAHTRTHTGEKPFSCSWKGCERRFARSDELSRHRRTHTGEKKFACPMCDRRFMRSDHLTKHARRHLSAKKLPNWQMEVSKLNDIALPPTPAPTQ
partner: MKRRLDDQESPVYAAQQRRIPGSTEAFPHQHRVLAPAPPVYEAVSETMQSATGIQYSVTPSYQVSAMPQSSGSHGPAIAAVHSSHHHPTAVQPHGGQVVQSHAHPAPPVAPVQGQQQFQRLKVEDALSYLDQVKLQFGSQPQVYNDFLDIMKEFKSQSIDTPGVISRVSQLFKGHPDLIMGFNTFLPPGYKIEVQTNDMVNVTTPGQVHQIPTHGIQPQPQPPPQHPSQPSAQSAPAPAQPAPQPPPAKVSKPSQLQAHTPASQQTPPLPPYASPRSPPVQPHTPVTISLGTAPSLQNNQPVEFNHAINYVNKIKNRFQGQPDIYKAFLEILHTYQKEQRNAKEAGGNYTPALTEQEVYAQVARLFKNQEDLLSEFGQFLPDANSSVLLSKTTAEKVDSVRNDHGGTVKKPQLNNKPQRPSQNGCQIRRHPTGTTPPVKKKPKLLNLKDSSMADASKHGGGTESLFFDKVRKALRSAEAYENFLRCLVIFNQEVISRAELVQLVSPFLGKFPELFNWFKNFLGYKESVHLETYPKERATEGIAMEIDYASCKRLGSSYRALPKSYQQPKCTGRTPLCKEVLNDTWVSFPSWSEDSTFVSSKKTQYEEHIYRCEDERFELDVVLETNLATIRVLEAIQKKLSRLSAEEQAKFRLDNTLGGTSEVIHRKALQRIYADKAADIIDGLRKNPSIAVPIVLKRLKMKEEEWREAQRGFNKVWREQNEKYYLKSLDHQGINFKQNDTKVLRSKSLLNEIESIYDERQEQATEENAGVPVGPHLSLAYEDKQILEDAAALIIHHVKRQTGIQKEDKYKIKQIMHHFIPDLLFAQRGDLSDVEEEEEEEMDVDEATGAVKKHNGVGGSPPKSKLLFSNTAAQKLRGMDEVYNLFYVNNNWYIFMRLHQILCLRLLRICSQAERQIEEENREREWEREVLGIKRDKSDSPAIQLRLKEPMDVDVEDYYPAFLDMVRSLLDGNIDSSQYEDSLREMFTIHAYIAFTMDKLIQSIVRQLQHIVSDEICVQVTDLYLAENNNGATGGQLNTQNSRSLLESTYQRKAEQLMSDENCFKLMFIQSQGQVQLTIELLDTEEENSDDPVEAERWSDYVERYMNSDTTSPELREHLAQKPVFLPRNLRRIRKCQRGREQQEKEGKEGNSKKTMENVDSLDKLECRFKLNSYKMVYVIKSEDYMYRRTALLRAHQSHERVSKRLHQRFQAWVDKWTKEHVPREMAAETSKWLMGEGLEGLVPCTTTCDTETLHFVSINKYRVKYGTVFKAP

Variants of: B1
Details: with sin3a_human SIN3A

Row | Variant | effect of a mutation on the interaction
1 | E40P;A41P | disrupting interaction strength
